Measured values taken from patent US20150160214A1, “Quantitation of Cellular Adhesion Dynamics Across Immobilized Receptors Under Rheological Shear Flow” (Mayo Foundation for Medical Education and Research, priority 2013, published 2015).

Tests used:
[1] = GdnHCl- and urea-induced unfolding at 25° C. by circular dichroism (Example 2); format: physicochemical; conditions: CD
Description: The thermodynamic stability of A1 and of RCAM A1 was determined from GdnHCl and urea induced unfolding measured via CD and FL at 25° Celsius (FIG. 14). […] Complete unfolding of A1 and of RCAM A1 occurs in GdnHCl but not in urea. However, in presence of urea, a small expansion of RCAM A1 compared to A1 in its intermediate state is observed.
(§1) Urea and GdnHCl induced unfolding of A1 and of RCAM A1 at 25° Celsius was monitored via CD at 222 nm on an Aviv Biomedical Model 420C circular dichroism spectrometer. A 1 mm quartz cuvette and protein concentrations of 5 or 10 μM were used. Samples were equilibrated in their urea or GdnHCl containing buffer at 25° Celsius overnight. CD-signal was averaged for 5 to 10 min using an integration time of 1 s. CD-spectra were measured at 20° Celsius using 0.1 or 1 mm quartz cells with a step width of 1 nm between 190 and 260 nm with an integration time of 20 s and a bandwidth of 1 nm. CD-spectra in the near UV range (260-360 nm) were recorded using a 5 cm quartz cell with a 120 s integration time. Transition curves and protein spectra were corrected for the CD Signal of the corresponding buffer.

[2] = Secondary structure contribution calculated from CD-spectra (CDNN); format: physicochemical
Description: Fluorescence and circular dichroism spectra of A1 and of RCAM A1 were measured to compare the basic spectroscopic properties of the two protein variants (FIG. 13). The fluorescence spectrum of native A1 has a relatively low intensity with λmax of ˜345 nm. In presence of 2 M GdnHCl the fluorescence intensity increases as the interior of the protein becomes solvent accessible and a red shift of the spectrum to ˜351 nm occurs. […] Nevertheless, RCAM A1 is still retains significant secondary structure content in solution; the distribution of which is summarized in Table 1. In the near UV, the CD of disulfide-intact A1 show a well-defined spectral banding pattern between 260 and 300 nm indicating significant tertiary structure content that is absent in RCAM A1.
as §1

platelet GPIbα = target: T1, platelet GPIbα (Homo sapiens, UniProt P07359); experiment: Platelet adhesion to surface captured disulfide-intact A1 and RCAM A1 under shear flow (Example 2); format: cell-based
T1 construct: endogenous in cells; host or cells: platelets in citrated whole blood of normal healthy volunteer donors
Description: The interaction of disulfide-intact A1 and of RCAM A1 with platelets was studied by immobilizing the proteins via the 6×His-Tag on Cellix biochips in which the internal channel surface was coated with a Cu2+ chelating chemistry. A 5 μM concentration of protein was immobilized in the biochip and citrated whole blood was perfused at a shear rate of 800 s−1 (FIG. 11B). This perfusion was followed by TBS buffer and after red blood cells cleared the channel, the shear was decremented to 100 s−1 or incremented to 9000 s−1 every two minutes at logarithmic intervals. Surface bound platelets were allowed to equilibrate at a given shear rate for 50 s and a 60 s video at 24 frames per second was recorded and analyzed as described in the methods. The internal channel surface lacking immobilized A1 domain was completely inert to platelets.
At each shear rate, platelet mean pause times and mean translocation velocities were calculated from the X-Y trajectories of moving platelets as described in the methods. Approximately 1000 platelet trajectories were analyzed at each shear rate (FIGS. 11B to 11D). The mean pause times were also calculated from the pause time survival fraction obtained from the cumulative integral of the pause time distribution (FIG. 11B) (Thomas:2006). The survival fraction exponentially decreases with faster decay rates as shear increases. Fitting the survival fraction with a bi-exponential decay function results in the apparent rate constants and amplitudes as a function of shear rate (FIG. 11C).
The determination and analysis of platelet pause times and instantaneous translocation velocities over surface captured A1 and RCAM A1 was performed as previously described (Tischer:2013). Here, the inventor used the Cellix Mims Evo syringe pump controlled by VenaFluxAssay (www.cellixltd.com). Vena8™ CGS biochips were custom designed with 800 μm width by 80 μm height microchannels bonded to glass slides with a Cu^2+ chelated PEG surface serviced by Microsurfaces Inc. (www.proteinslides.com/histag.html) to which the A1 and RCAM A1 in TBS were captured by the 6×His-Tag at a total concentration of 5 μM. Citrated whole blood was obtained from the informed consent of healthy volunteer donors with approval from the Mayo Clinic Institutional Review Board and 100 μL was perfused over the surface captured A1 domains at […]. The shear was increased or decreased in a stepwise manner to measure the dynamics of platelet adhesion at high and low shear. After allowing the flow chamber to equilibrate for 50 s at each shear rate, 1 min movies were recorded at 24 frames per second in phase contrast at 200× magnification with 2×2 pixel binning on a Zeiss AxioCam Mrm camera (6.45 μm/px) attached to a Zeiss Axio Observer.D1 inverted microscope. Tracking analysis was performed using MediaCybernetics ImagePro® Premier (www.mediacy.com/index.aspx?page=IP\_Premier) The distance travelled in the direction of flow was calculated from the coordinate data for each platelet as a function of time using √{square root over ((xt−x0)^2)}, where x0 is the coordinates of a platelet on the first frame of the movie and xt is the coordinate on subsequent frames of the movie. These trajectories were differentiated into instantaneous velocities using a Savitzky-Golay algorithm (Savitzky:1964) with a five data point window size and a second order polynomial implemented into a Mathematica (www.wolfram.com/mathematica) notebook written in our lab. Trajectories were retained for statistical analysis if the platelet was present for ≧1 s and travelled a total distance greater than 1 Distance travelled in pixels (px) was converted to (μm) using 6.45 μm/px*2/200=0.0645 μm/px. Pause times were determined by the amount of time (sec) a platelets velocity was 0±4 px/s≅0±0.23 μm/s, within the noise. Data are reported as mean velocities and pause times attained by individual platelets averaged over all platelets analyzed. […]

[3] = calculated from CD-spectra, CDNN

Substance: A1-1238: Recombinant human vWF A1 domain, amino acids Q1238-P1471, with N-terminal 6×His-Tag, disulfide intact
- cm, I ⇄ D ([1]; GdnHCl): 4.40 ± 0.02 M
- cm, N ⇄ I ([1]; GdnHCl): 0.819 ± 0.006 M
- m-value, I ⇄ D ([1]; GdnHCl): −6.66 ± 0.30 kJ/mol/M
- m-value, N ⇄ I ([1]; GdnHCl): −18.67 ± 0.76 kJ/mol/M
- ΔG^0, I ⇄ D ([1]; GdnHCl): 7.003 ± 0.315 kcal/mol
- ΔG^0, N ⇄ I ([1]; GdnHCl): 3.654 ± 0.151 kcal/mol
- cm, I ⇄ D ([1]; Urea): 10.03 ± 0.19 M
- cm, N ⇄ I ([1]; Urea): 2.85 ± 0.02 M
- m-value, I ⇄ D ([1]; Urea): −3.35 ± 0.62 kJ/mol/M
- m-value, N ⇄ I ([1]; Urea): −4.70 ± 0.17 kJ/mol/M
- ΔG^0, I ⇄ D ([1]; Urea): 8.03 ± 1.49 kcal/mol
- ΔG^0, N ⇄ I ([1]; Urea): 3.203 ± 0.117 kcal/mol
- % α-Helix [2, 3]: 38.0%
- % β-sheet [2, 3]: 15.6%
- % Remainder ([2]; β-turns and random coil structure): 46.4%
- Shear rate at which platelets detach from the surface immobilized domain (platelet GPIbα; listed as A1): less than 300 s−1
- Shear rate at which platelets detach from the surface immobilized domain (platelet GPIbα; listed as disulfide-intact A1): ≤ 300 s⁻¹
- Mean platelet pause time (platelet GPIbα; shear rate 530 s−1): ~0.75 s
- Mean platelet pause time (platelet GPIbα; shear rate 1025 s−1): ~0.9 s
